Biological target: PSD-95, endogenous, in cultured cortical neurons (mouse) (UniProt Q62108)
Assay: cell-based or functional assay

PSD-95, endogenous, in cultured cortical neurons (mouse), sequence (Q62108 whole entry): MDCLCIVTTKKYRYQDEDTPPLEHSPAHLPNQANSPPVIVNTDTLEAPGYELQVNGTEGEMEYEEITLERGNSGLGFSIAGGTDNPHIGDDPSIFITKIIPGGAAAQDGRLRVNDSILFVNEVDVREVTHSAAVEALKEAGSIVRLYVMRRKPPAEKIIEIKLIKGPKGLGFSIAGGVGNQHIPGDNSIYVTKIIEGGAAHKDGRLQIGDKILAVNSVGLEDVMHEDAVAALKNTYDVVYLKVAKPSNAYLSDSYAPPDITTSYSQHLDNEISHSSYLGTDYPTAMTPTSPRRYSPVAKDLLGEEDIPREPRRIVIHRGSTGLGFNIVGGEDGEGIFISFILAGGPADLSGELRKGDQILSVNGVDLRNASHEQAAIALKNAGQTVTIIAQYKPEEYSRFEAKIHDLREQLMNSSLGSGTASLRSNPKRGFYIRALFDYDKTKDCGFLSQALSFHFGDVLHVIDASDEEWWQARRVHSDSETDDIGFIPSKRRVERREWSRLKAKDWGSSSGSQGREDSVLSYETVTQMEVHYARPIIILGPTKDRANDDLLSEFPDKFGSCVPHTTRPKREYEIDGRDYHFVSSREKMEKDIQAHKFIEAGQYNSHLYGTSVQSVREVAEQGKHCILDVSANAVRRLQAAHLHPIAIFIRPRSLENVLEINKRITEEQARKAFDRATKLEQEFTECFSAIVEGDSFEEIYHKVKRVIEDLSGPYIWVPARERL

Tat-NR2B9c (peptide)
NMDA-evoked cGMP production in cortical cultures (surrogate of NO production by nNOS): 39.5%

Source: patent publication US20050059597A1
